# How the values were obtained:
# [1] = test system: PPR2.0t23 (synthetic designer (scaffold from Arabidopsis PPR consensus)); assay: EMSA; conditions: apparent; EMSA: 20 mM Tris-HCl pH 8.0, 150 mM NaCl, 0.5% NP-40, 1 mM DTT, 1 mM EDTA, 0.2 pmol biotin-RNA in 10 uL, 6% PAGE in 0.5x TBE; temperature not stated; RBP-ELISA …
# [2] = test system: PPR2.0t23 (synthetic designer (scaffold from Arabidopsis PPR consensus)); assay: RBP-ELISA; conditions: cell lysate, EMSA: 20 mM Tris-HCl pH 8.0, 150 mM NaCl, 0.5% NP-40, 1 mM DTT, 1 mM EDTA, 0.2 pmol biotin-RNA in 10 uL, 6% PAGE in 0.5x TBE, temperature not stated
# [3] = test system: PPR2.0t1 (synthetic designer (scaffold from Arabidopsis PPR consensus)); assay: EMSA; conditions: apparent; EMSA: 20 mM Tris-HCl pH 8.0, 150 mM NaCl, 0.5% NP-40, 1 mM DTT, 1 mM EDTA, 0.2 pmol biotin-RNA in 10 uL, 6% PAGE in 0.5x TBE; temperature not stated; RBP-ELISA …
# [4] = test system: PPR2.0t1 (synthetic designer (scaffold from Arabidopsis PPR consensus)); assay: RBP-ELISA; conditions: cell lysate, EMSA: 20 mM Tris-HCl pH 8.0, 150 mM NaCl, 0.5% NP-40, 1 mM DTT, 1 mM EDTA, 0.2 pmol biotin-RNA in 10 uL, 6% PAGE in 0.5x TBE, temperature not stated
# [5] = test system: PPR2.0t3 (synthetic designer (scaffold from Arabidopsis PPR consensus)); assay: EMSA; conditions: apparent; EMSA: 20 mM Tris-HCl pH 8.0, 150 mM NaCl, 0.5% NP-40, 1 mM DTT, 1 mM EDTA, 0.2 pmol biotin-RNA in 10 uL, 6% PAGE in 0.5x TBE; temperature not stated; RBP-ELISA …
# [6] = test system: PPR2.0t3 (synthetic designer (scaffold from Arabidopsis PPR consensus)); assay: RBP-ELISA; conditions: cell lysate, EMSA: 20 mM Tris-HCl pH 8.0, 150 mM NaCl, 0.5% NP-40, 1 mM DTT, 1 mM EDTA, 0.2 pmol biotin-RNA in 10 uL, 6% PAGE in 0.5x TBE, temperature not stated
# [7] = test system: PPR2.0t2 (synthetic designer (scaffold from Arabidopsis PPR consensus)); assay: EMSA; conditions: apparent; EMSA: 20 mM Tris-HCl pH 8.0, 150 mM NaCl, 0.5% NP-40, 1 mM DTT, 1 mM EDTA, 0.2 pmol biotin-RNA in 10 uL, 6% PAGE in 0.5x TBE; temperature not stated; RBP-ELISA …
# [8] = test system: PPR2.0t2 (synthetic designer (scaffold from Arabidopsis PPR consensus)); assay: RBP-ELISA; conditions: cell lysate, EMSA: 20 mM Tris-HCl pH 8.0, 150 mM NaCl, 0.5% NP-40, 1 mM DTT, 1 mM EDTA, 0.2 pmol biotin-RNA in 10 uL, 6% PAGE in 0.5x TBE, temperature not stated
# [9] = test system: PPR2.0t14 (synthetic designer (scaffold from Arabidopsis PPR consensus)); assay: EMSA; conditions: apparent; EMSA: 20 mM Tris-HCl pH 8.0, 150 mM NaCl, 0.5% NP-40, 1 mM DTT, 1 mM EDTA, 0.2 pmol biotin-RNA in 10 uL, 6% PAGE in 0.5x TBE; temperature not stated; RBP-ELISA …
# [10] = test system: PPR2.0t14 (synthetic designer (scaffold from Arabidopsis PPR consensus)); assay: RBP-ELISA; conditions: cell lysate, EMSA: 20 mM Tris-HCl pH 8.0, 150 mM NaCl, 0.5% NP-40, 1 mM DTT, 1 mM EDTA, 0.2 pmol biotin-RNA in 10 uL, 6% PAGE in 0.5x TBE, temperature not stated
# [11] = test system: PPR2.0t15 (synthetic designer (scaffold from Arabidopsis PPR consensus)); assay: EMSA; conditions: apparent; EMSA: 20 mM Tris-HCl pH 8.0, 150 mM NaCl, 0.5% NP-40, 1 mM DTT, 1 mM EDTA, 0.2 pmol biotin-RNA in 10 uL, 6% PAGE in 0.5x TBE; temperature not stated; RBP-ELISA …
# [12] = test system: PPR2.0t15 (synthetic designer (scaffold from Arabidopsis PPR consensus)); assay: RBP-ELISA; conditions: cell lysate, EMSA: 20 mM Tris-HCl pH 8.0, 150 mM NaCl, 0.5% NP-40, 1 mM DTT, 1 mM EDTA, 0.2 pmol biotin-RNA in 10 uL, 6% PAGE in 0.5x TBE, temperature not stated
# [13] = test system: PPR2.0t19 (synthetic designer (scaffold from Arabidopsis PPR consensus)); assay: EMSA; conditions: apparent; EMSA: 20 mM Tris-HCl pH 8.0, 150 mM NaCl, 0.5% NP-40, 1 mM DTT, 1 mM EDTA, 0.2 pmol biotin-RNA in 10 uL, 6% PAGE in 0.5x TBE; temperature not stated; RBP-ELISA …
# [14] = test system: PPR2.0t19 (synthetic designer (scaffold from Arabidopsis PPR consensus)); assay: RBP-ELISA; conditions: cell lysate, EMSA: 20 mM Tris-HCl pH 8.0, 150 mM NaCl, 0.5% NP-40, 1 mM DTT, 1 mM EDTA, 0.2 pmol biotin-RNA in 10 uL, 6% PAGE in 0.5x TBE, temperature not stated
# [15] = test system: PPR2.0t24 (synthetic designer (scaffold from Arabidopsis PPR consensus)); assay: EMSA; conditions: apparent; EMSA: 20 mM Tris-HCl pH 8.0, 150 mM NaCl, 0.5% NP-40, 1 mM DTT, 1 mM EDTA, 0.2 pmol biotin-RNA in 10 uL, 6% PAGE in 0.5x TBE; temperature not stated; RBP-ELISA …
# [16] = test system: PPR2.0t8 (synthetic designer (scaffold from Arabidopsis PPR consensus)); assay: EMSA; conditions: apparent; EMSA: 20 mM Tris-HCl pH 8.0, 150 mM NaCl, 0.5% NP-40, 1 mM DTT, 1 mM EDTA, 0.2 pmol biotin-RNA in 10 uL, 6% PAGE in 0.5x TBE; temperature not stated; RBP-ELISA …
# [17] = test system: PPR2.0t8 (synthetic designer (scaffold from Arabidopsis PPR consensus)); assay: RBP-ELISA; conditions: cell lysate, EMSA: 20 mM Tris-HCl pH 8.0, 150 mM NaCl, 0.5% NP-40, 1 mM DTT, 1 mM EDTA, 0.2 pmol biotin-RNA in 10 uL, 6% PAGE in 0.5x TBE, temperature not stated
# [18] = test system: PPR2.0t5 (synthetic designer (scaffold from Arabidopsis PPR consensus)); assay: EMSA; conditions: apparent; EMSA: 20 mM Tris-HCl pH 8.0, 150 mM NaCl, 0.5% NP-40, 1 mM DTT, 1 mM EDTA, 0.2 pmol biotin-RNA in 10 uL, 6% PAGE in 0.5x TBE; temperature not stated; RBP-ELISA …
# [19] = test system: PPR2.0t5 (synthetic designer (scaffold from Arabidopsis PPR consensus)); assay: RBP-ELISA; conditions: cell lysate, EMSA: 20 mM Tris-HCl pH 8.0, 150 mM NaCl, 0.5% NP-40, 1 mM DTT, 1 mM EDTA, 0.2 pmol biotin-RNA in 10 uL, 6% PAGE in 0.5x TBE, temperature not stated
# [20] = test system: PPR2.0t4 (synthetic designer (scaffold from Arabidopsis PPR consensus)); assay: EMSA; conditions: apparent; EMSA: 20 mM Tris-HCl pH 8.0, 150 mM NaCl, 0.5% NP-40, 1 mM DTT, 1 mM EDTA, 0.2 pmol biotin-RNA in 10 uL, 6% PAGE in 0.5x TBE; temperature not stated; RBP-ELISA …
# [21] = test system: PPR2.0t4 (synthetic designer (scaffold from Arabidopsis PPR consensus)); assay: RBP-ELISA; conditions: cell lysate, EMSA: 20 mM Tris-HCl pH 8.0, 150 mM NaCl, 0.5% NP-40, 1 mM DTT, 1 mM EDTA, 0.2 pmol biotin-RNA in 10 uL, 6% PAGE in 0.5x TBE, temperature not stated
# [22] = test system: PPR2.0t11 (synthetic designer (scaffold from Arabidopsis PPR consensus)); assay: EMSA; conditions: apparent; EMSA: 20 mM Tris-HCl pH 8.0, 150 mM NaCl, 0.5% NP-40, 1 mM DTT, 1 mM EDTA, 0.2 pmol biotin-RNA in 10 uL, 6% PAGE in 0.5x TBE; temperature not stated; RBP-ELISA …
# [23] = test system: PPR2.0t11 (synthetic designer (scaffold from Arabidopsis PPR consensus)); assay: RBP-ELISA; conditions: cell lysate, EMSA: 20 mM Tris-HCl pH 8.0, 150 mM NaCl, 0.5% NP-40, 1 mM DTT, 1 mM EDTA, 0.2 pmol biotin-RNA in 10 uL, 6% PAGE in 0.5x TBE, temperature not stated
sequence,measurement,setting,value
GACAUGCCCCAUAGAUGUGACAAGCGACUG [Probe_t23],Kd,[1],10.4 nM
same,binding signal,[2],3.27e+07 luminescence
GACAUGCGAAUGAACUCUUCCGGGAGACUG [Probe_t1],Kd,[3],3.45 nM
same,binding signal,[4],6.64e+07 luminescence
GACAUGCCUGAGUCAUAACCAGCCUGACUG [Probe_t3],Kd,[5],59.2 nM
same,binding signal,[6],3.35e+07 luminescence
GACAUGCGAGAGGAAGCCUGAGAGUGACUG [Probe_t2],Kd,[7],4 nM
same,binding signal,[8],5.68e+07 luminescence
GACAUGCGCAGAUAAUUAAUAAGAAGACUG [Probe_t14],Kd,[9],197 nM
same,binding signal,[10],1.33e+07 luminescence
GACAUGCAAGGAUAAUAUCAAACACGACUG [Probe_t15],Kd,[11],41 nM
same,binding signal,[12],2.84e+07 luminescence
GACAUGCGUGAUGUGGAGUUAAGGCGACUG [Probe_t19],Kd,[13],173 nM
same,binding signal,[14],1.19e+07 luminescence
GACAUGCGGCGGGGCACUGUGCGUGGACUG [Probe_t24],Kd,[15],11 nM
GACAUGCCACUAUUUAAGUUAUCAAGACUG [Probe_t8],Kd,[16],1.95 nM
same,binding signal,[17],4.7e+07 luminescence
GACAUGCCAACAUCAGUCUGAUAAGGACUG [Probe_t5],Kd,[18],167 nM
same,binding signal,[19],1.67e+07 luminescence
GACAUGCGGCAAAAAGAUCACUGUAGACUG [Probe_t4],Kd,[20],2.57 nM
same,binding signal,[21],5.98e+07 luminescence
GACAUGCGACUCAGGAAUCGGCUCUGACUG [Probe_t11],Kd,[22],63.3 nM
same,binding signal,[23],3.78e+07 luminescence
